According to US20060240570A1 (AXIS SHIELD ASA, published 2006):
Where a chain is given by its changes, count along the chain named. Positions of bridges follow the written chain, without caps; N, C: chain ends. No end group written: not given here.

T1: human holotranscobalamin (holoTC) (human, UniProt P20062 19-427, cobalamin bound (non-covalent complex))
T1 construct: Recombinant human holoTC in the SPR work; also called holo-TCII
T1 chain: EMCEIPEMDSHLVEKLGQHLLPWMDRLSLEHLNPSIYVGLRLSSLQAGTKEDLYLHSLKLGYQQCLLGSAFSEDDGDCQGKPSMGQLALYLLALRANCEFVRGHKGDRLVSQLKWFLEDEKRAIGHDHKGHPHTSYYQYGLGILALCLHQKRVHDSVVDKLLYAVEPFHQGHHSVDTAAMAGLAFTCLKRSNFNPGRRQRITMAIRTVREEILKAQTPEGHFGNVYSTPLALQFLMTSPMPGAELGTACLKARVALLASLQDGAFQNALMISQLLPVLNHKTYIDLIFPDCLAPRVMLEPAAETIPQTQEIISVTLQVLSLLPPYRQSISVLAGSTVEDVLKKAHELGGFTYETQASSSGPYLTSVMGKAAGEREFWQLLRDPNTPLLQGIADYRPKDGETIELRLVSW

T2: human TC with the common polymorphism P259R (human, UniProt P20062 19-427)
T2 sequence: T1 chain with P241R

B1: phagemid CS1-29p, displayed peptide CSGLYPWDYFMCS (peptide)
peptide: CSGLYPWDYFMCS
modifications: disulfide 1-12 (inferred); also: displayed on phagemid
B2: monoclonal antibody TC2 (antibody, V domains shown)
VH: QVQLKQSGPGLLQPSQSLSITCTVSGFSLTYYGVHWVRQSPVKGLEWLGVIWSGGDTDYDTTFISRLSISKDNSKGQVFFKMTSLQTDDTAIYYCARGRTYGIHFDYWGQGTTLTVSS
VL: DIVMSQSPSSLAVSVGEKVTMSCKSSQSLFNSRTRKNYLAWYQQKPGQSPKVLIYWASTRESGVPDRFTGSGSGTDFTLTISSVQAEDLAIYYCKQFYDLWTFGGGTKLEIKR
notes: Mouse IgG1, ECACC 02110742; also called mAb TC2

Experiments:
monoclonal antibody 3C4 = biological target: T3, monoclonal antibody 3C4; assay: phage ELISA, 10^9 phagemid, wells coated with mAb 3C4
T3 construct: Mouse IgG1, ECACC 02110741; also called mAb 3C4; 3C4 (3CY)
Protocol: Microtitre plates were coated with 100 μL, 1 μg/mL mAb 3C4 or unrelated control antibody in PBS over night at 4 C. Remaining binding sites were blocked with 20 mg/mL bovine serum albumin (BSA) in PBS for 1 h. Some wells were only coated with BSA. Monoclonal packaged phagemids were added at a concentration of 10¹⁰ to 10⁸ cfu per well in PBS and incubated for 1 h. Preparations of packaged phagemids were centrifuged to remove aggregates. Wells were washed 6 times with PBS containing 0.1% Tween-20 and 3 times with PBS. For detection of bound phages 100 μL of horse-radish peroxidase (HRP) conjugated […] antibody (e.g. Pharmacia) diluted 1/5000 in PBS was added to each well and incubated for 1 h at ambient temperature. ELISA plates were washed 5 times with PBS containing 0.1%
Tween-20 and 3 times with PBS. The chromogenic substrate o-Phenyldiamine in citric acid, pH 4.0 supplemented with H₂O₂ was added and the color generating reaction was stopped after 2-5 min by addition of […].

[1] = biological target: T1, human holotranscobalamin (holoTC); assay: SPR (Biacore); holoTC against apoTC
[2] = biological target: T2, human TC with the common polymorphism …; assay: method not detailed

T3 sequence (VH, as listed by the source, chain 1 of 2): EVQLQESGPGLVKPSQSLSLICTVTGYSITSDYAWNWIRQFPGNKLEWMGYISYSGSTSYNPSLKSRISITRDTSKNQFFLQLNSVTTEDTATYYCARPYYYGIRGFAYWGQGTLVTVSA
T3 sequence (VL, as listed by the source, chain 2 of 2): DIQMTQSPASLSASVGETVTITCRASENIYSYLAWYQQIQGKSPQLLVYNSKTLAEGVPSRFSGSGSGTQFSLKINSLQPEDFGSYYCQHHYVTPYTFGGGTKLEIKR

| Binder | ELISA (absorbance units) (monoclonal antibody 3C4) | holo/apo Specificity (-fold) [1] | binding result [2] |
| --- | --- | --- | --- |
| B1 | 0.136 absorbance units | – | – |
| B2 | – | 1 fold | binds |
